The term Kd denotes a measure of binding affinity in units of concentration.

Holding throughout (conditions): both partners purified
Assay [1] addresses recombinant SARS-CoV-2 S1 protein (SARS-CoV-2, wild type (reference), UniProt P0DTC2). Description: BLI. A general note: In BLI a coated tip is dipped into the sample, and binding shifts an interference pattern.
Assay [2] has as its target recombinant SARS-CoV-2 S1 RBD protein (Severe acute respiratory syndrome …, UniProt P0DTC2). Description: BLI.
Assay [3] deals with SARS-CoV-2 spike receptor-binding domain (residues 333 to 530), carboxyl-terminal 8xHis tag (Severe acute respiratory syndrome …, UniProt P0DTC2). Description: crystal structure.

B1: PR1077 (antibody, V domains shown)
VH: QVQLVESGGGVVQPGRSLRLSCAASGFTFSYYGMHWVRQAPGKGLEWVAVIWYDGSNRFYADSVKGRFTISRDNSKSTLYLQMNSLRAEDTAVYYCATDPPGLRFRFDYWGQGTLVTVSS
VL: not shown
notes: source: HEK 293F or ExpiCHO, transfected, purified (Protein A)
In the case of B1, the Kd in assay [1] worked out at 0.543 nM; in assay [2], 2.33 nM.

B2: PR961 single-chain variable fragment (scFv, V domains shown)
VH: QVQLVQSGAEVKKPGASVKLSCKASGYSFTSYWVNWVRQAPGQGLEWIGMIHPSDSETRLNQKFKDRVTITVDKSTSTAYMELSSLRSEDTAVYYCARADGYEWYFDVWGRGTLVTVSS
VL: DIVLTQSPASLAVSPGQRATITCRASESVDSYGNSFMHWYQQKPGQPPKLLIYRASNLESGIPARFSGSGSGTDFTLTINPVEANDVANYYCQQSNEDPWTFGQGTKVEIK
notes: also called PR961 scFv
Consider B2, for which the binding result in assay [3] was “binds”.

B3: PR953 (antibody, V domains shown)
VH: EVQLQQSGPELVKPGASVKISCKTSGYTFTEYTMHWVKQSHGKSLEWIGGINPNNGDNTYNQKLKGKATLTVHKSSSTAYMELRSLTSEDSAVYYCARDGYPYYYALDYWGQGTSVTVSS
VL: DIVMTQSQKFMSTSVGDRVSVTCKASQNVGTNVAWYQQKPGQSPKPLIYSASSRYSGVPDRFTGSGSGTDFTLTISNVQSEDLAEYFCQQYNNYPWTFGGGTKLEIK
notes: as for B1
As to B3, the dissociation constant (Kd) in assay [2] was less than 0.001 nM.

The values above are taken from publication PMC8133496 (PLoS Biology, 2021).
